Assay results: paper doi:10.1101/2021.07.28.454137
Where two headings read alike, the source gives them in different places.

Key:
[1] = target: human LonP1 T803V mutant, amino acids 125 to 959 (human) (UniProt P36776)
[2] = target: human mitochondrial Lon protease homolog (LonP1), wild-type, amino acids 125 to 959 (human) (UniProt P36776); assay: cryo-EM structure
[3] = target: human mitochondrial Lon protease homolog (LonP1), wild-type, amino acids 125 to 959 (human) (UniProt P36776); assay: cryo-EM structure; remark: listed apart in the source

| ATPase activity relative to wild-type LonP1 [1] | stoichiometry N [2] | stoichiometry N [3] | Substance |
| --- | --- | --- | --- |
| 50% | – | – | human LonP1 T803V mutant, amino acids 125 to 959 (from UniProt P36776 125-959) (enzyme) |
| – | 6 | 6 | human mitochondrial Lon protease homolog (LonP1), wild-type, amino acids 125 to 959 (from UniProt P36776 125-959) (enzyme) |
